Results reported in paper PMC4827770 (Journal of molecular recognition : JMR, 2008).
Where two headings read alike, the source gives them in different places.

How the values were obtained:
[1] = molecular target: T1, murine JAM-A on L929 (L) cells (murine (endogenous in L929 cells), UniProt O88792 27-300); assay: single molecule force spectroscopy
T1 sequence (looked up): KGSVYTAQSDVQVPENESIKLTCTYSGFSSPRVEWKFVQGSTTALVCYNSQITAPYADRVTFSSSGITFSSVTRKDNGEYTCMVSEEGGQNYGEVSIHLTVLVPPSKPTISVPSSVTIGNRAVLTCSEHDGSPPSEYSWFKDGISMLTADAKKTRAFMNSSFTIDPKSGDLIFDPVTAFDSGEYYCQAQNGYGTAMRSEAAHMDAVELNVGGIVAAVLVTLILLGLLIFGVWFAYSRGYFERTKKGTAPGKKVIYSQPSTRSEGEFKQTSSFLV

[2] = molecular target: T1, murine JAM-A on L929 (L) cells; assay: single molecule force spectroscopy; remark: listed apart in the source

B1: chimeric murine JAM-A/Fc fusion protein (Fc fusion)
chain: KGSVYTAQSDVQVPENESIKLTCTYSGFSSPRVEWKFVQGSTTALVCYNSQITAPYADRVTFSSSGITFSSVTRKDNGEYTCMVSEEGGQNYGEVSIHLTVLVPPSKPTISVPSSVTIGNRAVLTCSEHDGSPPSEYSWFKDGISMLTADAKKTRAFMNSSFTIDPKSGDLIFDPVTAFDSGEYYCQAQNGYGTAMRSEAAHMDAVELNVGG
Q: With B1 as the binder, how does the koff [1] read?
A: The koff was 0.688 ± 0.349 s⁻¹.

B2: reovirus attachment protein σ1 head domain plus a short region of the tail (residues 293–455) (domain or fragment)
chain: SPNLRYPIADVSGGIGMSPNYRFRQSMWIGIVSYSGSGLNWRVQVNSDIFIVDDYIHICLPAFDGFSIADGGDLSLNFVTGLLPPLLTGDTEPAFHNDVVTYGAQTVAIGLSSGGAPQYMSKNLWVEQWQDGVLRLRVEGGGSITHSNSKWPAMTVSYPRSFT
Q: Which koff [2] does the source give for B2 here?
A: The koff was 0.067 ± 0.041 s⁻¹.
